The assay deals with anti-BBP1 polyclonal antibody. As to the kind of experiment: competitive ELISA, free peptide against coated BBP1-biotin peptide for the anti-BBP1 polyclonal antibody.

B1: BBP1 peptide (SEQ ID No. 7) (peptide)
peptide: HSYSTNSFSRTTNG
For the molecule B1, the lowest level detected came to 2.5 µg/mL.

Source of the values: patent US20180244734A1.
